{"source": "paper doi:10.1101/2025.11.07.687288", "key": {"[1]": {"target": "E-cadherin V81D L175D, as the Dimerization Activated TurboID pair (Δ-DAT: ΔEcadN and ΔEcadC)", "assay": "split reporter"}, "[2]": {"target": "E-cadherin V81D L175D, as the Dimerization Activated TurboID pair (Δ-DAT: ΔEcadN and ΔEcadC)", "assay": "split reporter", "remark": "listed apart in the source"}}, "note": "Where two headings read alike, the source gives them in different places.", "data": [{"substance": "E-cadherin V81D L175D, as the Dimerization Activated TurboID pair (Δ-DAT: ΔEcadN and ΔEcadC) (receptor)", "values": [{"measurement": "biotinylation relative to WT-DAT, normalized for expression", "setting": "[1]", "result": 59, "unit": "%"}, {"measurement": "biotinylation relative to WT-DAT, normalized for expression", "setting": "[2]", "result": 38.7, "unit": "%"}]}]}
